According to the nanobody polyreactivity screen of Harvey et al. (2022):

Assay: yeast display, Sf9 membrane polyspecificity reagent, FACS + sequencing; frameworks hold sequencing errors
How it was run: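 Nanobodies came from a synthetic yeast display library in Saccharomyces cerevisiae BJ5465, induced with galactose for 36–48 hours and stained for 1 hour at 4 °C with 10% biotinylated, detergent-solubilized Sf9 membrane reagent. Cells were enriched on streptavidin microbeads and then FACS-sorted, with low and high (top ~1%) gates set on anti-HA fluorescence for expression and streptavidin fluorescence for reagent binding. Each polyreactivity label reflects the gate a clone came from. Genes were amplified by colony PCR, sequenced by MiSeq 2 × 250 and filtered by CDR length.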

Sequence	polyreactivity (PSR sort gate)
QVQLVESGGGLVQAGGSLRLSCAASGGTFLNYAMGWYRQAPGKECELVAVITNGDSTYYADSVKGRFTISRDNAKNTVYLQMNSLKPEDTAVYYCNADDWGQYNIWYDYWGQGTQVTVSS	low polyreactivity
QVQLVESGGGLVQAGGSLRLSCAASGGTFLRNAMGWYRQAPGKERELVAAISARGGSTRYADSVKGRFTISRDNAKNTVYLQMNSLKPEDTAVYYCDATSSHHRRMEYWGQGTQVTVSS	high polyreactivity
QVQLVESGGGLVQAGGSLRLSCAASGGTFLYNAMGWYRQAPGKERELVAAISRSGGRTDYADSVKGRFTISRDNAKNTVYLQMNSLKPEDTAVYYCATPGTYYTHRYRYDYWGHGTQVTVSS	high polyreactivity
QVQLVESGGGLVQAGGSLRLSCAASGGTFNTYAMGWYRPAPGKERELVAAITSSGGSTFYADSVKWRFTISRDNAKNTVYLQMNSLKPEDTAVYYCAAKSYWTIVYRHPGYYYWGQGTQVTVSS	low polyreactivity
QVQLVESGGGLVQAGGSLRLSCAASGGTFPGYTMGWYRQAPGKERELVAAISRGGRTYYADSVKGRFTISRDNAKNTVYLQMNSLKPEDTAVYYCNAVTKYGNFDYWGQGTQVTVSS	high polyreactivity
QVQLVESGGGLVQAGGSLRLSCAASGGTFPWYSMGWYRPATGKEREMVAGITWGGVSTYADSVKGRFTISRDNAKNTVYLQMNSLKQEDTAVYYCASRTSFTRGPWYKFYYWGQGTQVTVSS	high polyreactivity
QVQLVESGGGLVQAGGSLRLSCAASGGTFQAYAMGWYRQAPGKERELVAAISRSGGRTYYADSVKGRFTISRDNAKNTVYLQMNSLKPEDTAVYYCNAGAYYRNEMDYWGQGTQVTVSS	high polyreactivity
QVQLVESGGGLVQAGGSLRLSCAASGGTFQINAMGWYRQAPGKERELVAAISRSGGSTSYADSVKGRFTISRDNAKNTVYLQMNSLKPEDTAVYYCNKRVRATAWYDYWGQGTQVTVSS	high polyreactivity
QVQLVESGGGLVQAGGSLRLSCAASGGTFQPNAMGWYRQAPGKERELVAAISWSDGSTYYADSVKGRFTISRDNAKNTVYLQMNSLKPEDTAVYYCAADFTYYDSPYRDYNYESWGQGTQVTVSS	low polyreactivity
QVQLVESGGGLVQAGGSLRLSCAASGGTFRAYVMGWYRQAPGKERELVAAISRSGTRTYYADSVKGRFTISRDNAKNTVYLQMNSLKPEDTAVYYCAAAAKSWLFDYWGQGTQVTVSS	high polyreactivity
QVQLVESGGGLVQAGGSLRLSCAASGGTFRLYAMGWYRQAPGKERELVAAITGSSGGTYYADSVKGRFTISRDNAKNTVYLQMNSLKPEDTAVYYCAARSSYWGQGTQVTVSS	low polyreactivity
QVQLVESGGGLVQAGGSLRLSCAASGGTFRPYAMGWYRQAPGKERELVATIRSSGGRTYYADSVKGRFTISRDNAKNTVYLQMISLKPEDTAVYSCAADRTRGYGNDYWGQGTQVTVSS	high polyreactivity
QVQLVESGGGLVQAGGSLRLSCAASGGTFRRYTMGWYRPAPGKERELVAVISRSGGSTYYADSVKGRFTISRDIAKNTVYLQMNSLKPEDTAVYYCAVVYYNGYDWGQGTQVTVSS	high polyreactivity
QVQLVESGGGLVQAGGSLRLSCAASGGTFRSNAMGWYRQAPGKERELVAASTNYADSVKGRFTISRDNAKNTVYLQMNSLKPEDTAVYYCAAGPTDSQSGMDYWGQGTQVTVSS	low polyreactivity
QVQLVESGGGLVQAGGSLRLSCAASGGTFRVYVMGWYRQAPGKERELVAAISRGGGSTYYADSVKGRFTISRDNAKNTVYLQMNSLKPEDTAVYYCAARVWRYPWRASEYDYWGQGTQVTVSS	high polyreactivity
QVQLVESGGGLVQAGGSLRLSCAASGGTFRYNAMGWYRQAPGKERELVAAISRSGGSTHYADSVKGRFTISRDNAKNTVYLQMNSLKPEDTAVYYCAATVTFVPSRAGFYKYNYWGQGTQVTVSS	high polyreactivity

Sequence	polyreactivity (PSR sort gate)
QVQLVESGGGLVQAGGSLRLSCAASGGTFRYYAMGWYRQAPGKERELVAAITSGDTTNYADSVKGRFTISRDNAKNTVYLQMNSLKPEDTAVYYCAKELQVRQAGDYWGQGTQVTVSS	low polyreactivity
QVQLVESGGGLVQAGGSLRLSCAASGGTFSGYTMGWYRQAPGKEWELVAAITRSGSSTYYADSVKGRFTISRDNAKNTVYLQMNSLKPEDTAVYYGAATYGSGVYKYDYWGQGTQVTVSS	high polyreactivity
QVQLVESGGGLVQAGGSLRLSCAASGGTFSKYAMGWYRQAPGKEREFVAAITVSGGGTYYADSVKGRFTISRDNAKYTVYLQMNSLKPEDTAVYDCAADLAWTASDYWGQVTQVTVSS	low polyreactivity
QVQLVESGGGLVQAGGSLRLSCAASGGTFSLNAMGWYRQAPGKEREFVAGITWGGGRTYYADSVKGRFTISRDNAKNTVYLQMNSLKPEDTAVYYCAAGAWRGPYSGYYYWGQGTQVTVSS	low polyreactivity
QVQLVESGGGLVQAGGSLRLSCAASGGTFSLYAMGWYRQAPGKEREFVAAISWRGTSTYYADSVKGRFTISRDNAKNTVYLQMNSLKPEDTAVYYCAARAWHEYGSWGQGTQVTVSS	high polyreactivity
QVQLVESGGGLVQAGGSLRLSCAASGGTFSPYAMGWYRQAPGKERELVAAIRYSGDRTYYADSVKGRFTISRDNAKNTVYLQMNSLKPEDTAVYYCAGPYYNTGYRYGYWGQGTQVTVSS	high polyreactivity
QVQLVESGGGLVQAGGSLRLSCAASGGTFSPYYMGWYRQAPGKEREFVASITGSGGSTYYADSVKGRFTISRGNAKNTVYVQMNSLKPEDTAVYYCAAQCYWTYWPYLLRLYDYWGQGTQVTVSS	low polyreactivity
QVQLVESGGGLVQAGGSLRLSCAASGGTFSQYAMGWYRQAPGKERELVARISRRGGSTSYADSVKGRFTISRDNAKNTVYLQMNSLKPEDTAVYYCAKDAPSVYPGRFGNTGGYAYDYWGQGTQVTVSS	high polyreactivity
QVQLVESGGGLVQAGGSLRLSCAASGGTFSRNVMGCYRPAPGKERELVSAISRRGSSTYYADSVKGRFTISRDNAKNTVFLQMNSLKPEDTAVYYCARDQFTGADEAGDDYWGQGTQVTVSS	high polyreactivity
QVQLVESGGGLVQAGGSLRLSCAASGGTFSSYAMGWYRPAPGKERELVADITRRGGSTYYADSVKGRFTISRDNAKNTVYLQMNSLKPEDTAVYYCAKDYFRRGLWGFSIYGYWGQGTQVTVSS	high polyreactivity
QVQLVESGGGLVQAGGSLRLSCAASGGTFSVYAMGWYRQAPGKEREFVASITYGGGITYYADSVKGRFTISRDNAKNTVYLQMNSLKPEDTAVYYCAVDRRVLWYDMDYWGQGTQVTVSS	high polyreactivity
QVQLVESGGGLVQAGGSLRLSCAASGGTFSYNTMGWYRQAPGKERELVAVITFSGGSTYYADSVKGRFTISRDNAKNTVYLQMNSLKPEDTAVYYCNARSYPRWLRYDYWGQGTQVTVSS	low polyreactivity
QVQLVESGGGLVQAGGSLRLSCAASGGTFSYYAMGWYRQAPGKERELVAAITYSGDRTYYADSVKGRFTISRDNAKNTVYLQMNSLKPEDTAVYYCNAVRGSWYGYYYWGQGTQVTVSS	high polyreactivity
QVQLVESGGGLVQAGGSLRLSCAASGGTFVSYAMGWYRQAPGKERELVVAITYSGGSTYYADSVKGRFTISRDNAKNTVYLQMNRLKPEDTAVYYCAAPKFSYFSYSPRGKFKYEYWGQGTQVTVSS	low polyreactivity
QVQLVESGGGLVQAGGSLRLSCAASGGTFVTNAMGWYRQAPGKERELVAAISYDGGITYYADSVKGRFTISRDNAKNTVYLQMNSLKPEDTAVYYCAAYRRYRNWFNYWGQGTQVTVSS	high polyreactivity
QVQLVESGGGLVQAGGSLRLSCAASGGTFVTYTMAWYRQAPGKEREFVAAISRSGGSTYYADSVKGRFTISRDNAKNTVYLQMNSLKPEDTAVYYCATRGRYYGPGYDYWGQGTQVTVSS	high polyreactivity
